{"source": "patent US20260297164A1", "about": "“ANTI-FIBROTIC PEPTIDES AND USES THEREOF” (Deackt, Inc., priority 2021, published 2026)", "origin": "cited, not measured here", "molecules": {"B1": {"name": "syndecan-2: known extracellular protein that can bind to CD148 (protein, UniProt P34741 19-201, looked up)", "Syndecan-2": "ESRAELTSDKDMYLDNSSIEEASGVYPIDDDDYASASGSGADEDVESPELTTSRPLPKILLTSAAPKVETTTLNIQNKIPAQTKSPEETDKEKVHLSDSERKMDPAEEDTNVYTEKHSDSLFKRTEVLAAVIAGGVIGFLFAIFLILLLVYRMRKKDEGSYDLGERKPSSAAYQKAPTKEFYA"}}, "test_system": "CD148", "details": "extracellular proteins; cited from earlier work"}
{"molecule": "B1", "values": [{"measurement": "binding to CD148 and activation of PTP activity", "value": "can bind to CD148 and activate PTP activity"}]}
